Data from patent US20180099015A1 (ADCURE BIOTECHNOLOGIES, published 2018).

B1: Ad5 partner of the row Ad5-sCAR* (other)
chain: GAITVGNKNNDKLTLWTTPAPSPNCRLNAEKDAKLTLVLTKCGSQILATVSVLAVKGSLAPISGTVQSAHLIIRFDENGVLLNNSFLDPEYWNFRNGDLTEGTAYTNAVGFMPNLSAYPKSHGKTAKSNIVSQVYLNGDKTKPVTLTITLNGTQETGDTTPSAYSMSFSWDWSGHNYINEIFATSSYTFSYIAQE
B2: Ad12 partner of the row Ad12-sCAR* (other)
chain: SNTPYDPLTLWTTPDPPPNCSLIQELDAKLTLCLTKNGSIVNGIVSLVGVKGNLLNIQSTTTTVGVHLVFDEQGRLITSTPTALVPQASWGYRQGQSVSTNTVTNGLGFMPNVSAYPRPNASEAKSQMVSLTYLQGDTSKPITMKVAFNGITSLNGYSLTFMWSGLSNYINQPFSTPSCSFSYITQE

How the values were obtained:
[1] = target: blood coagulation factor X (UniProt P00742); experiment: FX binding to immobilised virus (2900 RU); method not given, SPR (Biacore) named for FIG. 14B
blood coagulation factor X, sequence (P00742 41-488 limits assumed): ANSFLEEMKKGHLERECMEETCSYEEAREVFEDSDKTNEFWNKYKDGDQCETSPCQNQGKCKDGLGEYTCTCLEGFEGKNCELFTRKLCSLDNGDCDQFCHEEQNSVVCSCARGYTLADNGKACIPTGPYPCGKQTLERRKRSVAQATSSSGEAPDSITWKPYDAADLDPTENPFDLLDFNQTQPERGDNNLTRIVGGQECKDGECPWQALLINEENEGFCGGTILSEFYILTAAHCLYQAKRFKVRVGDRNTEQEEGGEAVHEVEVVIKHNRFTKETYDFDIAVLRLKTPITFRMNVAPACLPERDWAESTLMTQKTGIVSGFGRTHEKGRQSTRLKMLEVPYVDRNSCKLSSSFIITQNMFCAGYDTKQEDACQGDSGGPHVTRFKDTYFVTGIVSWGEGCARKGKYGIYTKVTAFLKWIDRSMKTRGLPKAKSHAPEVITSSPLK

sCAR = target: T1, sCAR (UniProt P78310 20-237); experiment: not stated; row marked with an asterisk that has no footnote
T1 construct: also called soluble coxsackievirus and Ad receptor (CAR)
T1 sequence: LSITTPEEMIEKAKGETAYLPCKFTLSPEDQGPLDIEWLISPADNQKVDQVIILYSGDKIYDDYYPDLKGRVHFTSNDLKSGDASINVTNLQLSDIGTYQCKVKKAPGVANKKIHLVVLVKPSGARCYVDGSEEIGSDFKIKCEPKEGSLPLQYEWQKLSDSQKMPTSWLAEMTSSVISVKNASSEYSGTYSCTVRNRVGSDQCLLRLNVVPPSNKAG

Row | Molecule | Kd [1] [nM] | Kd (sCAR) [nM]
1 | human adenovirus serotype 4 (Ad4), virus particle (from UniProt P49810) | 2480 | 
2 | B1 |  | 7.9
3 | B2 |  | 15
